This experiment addresses T1, MBP-hNinein-N (1–480 aa) (human, UniProt Q8N4C6 1-480).
T1 construct: human Ninein residues 1-480; also called purified 1–480 aa of hNinein
T1 sequence (looked up): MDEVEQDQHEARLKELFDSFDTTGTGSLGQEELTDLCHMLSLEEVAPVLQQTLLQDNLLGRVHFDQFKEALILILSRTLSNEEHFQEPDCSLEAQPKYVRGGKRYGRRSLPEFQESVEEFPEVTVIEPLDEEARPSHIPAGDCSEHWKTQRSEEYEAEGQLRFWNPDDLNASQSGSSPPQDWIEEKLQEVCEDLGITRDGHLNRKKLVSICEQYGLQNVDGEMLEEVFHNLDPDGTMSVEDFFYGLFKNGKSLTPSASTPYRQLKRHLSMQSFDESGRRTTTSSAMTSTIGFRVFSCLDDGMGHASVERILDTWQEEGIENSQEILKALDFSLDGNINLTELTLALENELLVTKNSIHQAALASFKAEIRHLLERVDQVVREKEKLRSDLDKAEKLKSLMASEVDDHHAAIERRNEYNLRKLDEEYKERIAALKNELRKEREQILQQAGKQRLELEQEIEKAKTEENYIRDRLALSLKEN
The experiment in a line: pull-down; in vitro binding: purified GST-CCDC120 (1–320 aa) incubated with amylose resin beads coated with MBP fusions, 4 °C; immunoblot with anti-GST. Particulars: both partners purified.

B1: GST-tagged CCDC120 (1–320 aa) (domain or fragment, human, UniProt Q96HB5-1 1-320, looked up)
chain: MEVKGQLISSPTFNAPAALFGEAAPQVKSERLRGLLDRQRTLQEALSLKLQELRKVCLQEAELTGQLPPECPLEPGERPQLVRRRPPTARAYPPPHPNQAHHSLCPAEELALEALEREVSVQQQIAAAARRLALAPDLSTEQRRRRRQVQADALRRLHELEEQLRDVRARLGLPVLPLPQPLPLSTGSVITTQGVCLGMRLAQLSQEDVVLHSESSSLSESGASHDNEEPHGCFSLAERPSPPKAWDQLRAVSGGSPERRTPWKPPPSDLYGDLKSRRNSVASPTSPTRSLPRSASSFEGRSVPATPVLTRGAGPQLCKP
notes: human CCDC120 (NM_001271836.1) residues 1-320; also called GST-CCDC120 (1–320 aa); 1–320 aa of CCDC120
B1: the binding result was “binds”.

These data come from paper PMC5399293, “Hierarchical assembly of centriole subdistal appendages via centrosome binding proteins CCDC120 and CCDC68” (Nature Communications, 2017).
